We go through one molecule from doi:10.1101/2023.02.05.527200 (bioRxiv, 2023).

Experiment [1] has as its target T1, V5 peptide (Parainfluenza virus 5 (strain W3) …).
T1 chain: GKPIPNPLLGLDST
The experiment can be described thus: ITC.

Experiment [2] deals with T1, V5 peptide. The experiment can be described thus: ITC.

Where two headings read alike, the source gives them in different places.

B1: NbV5 (VHH)
VHH: EVQLQASGGGFVQPGGSLRLSCAASGTTSFGDTMGWFRQAPGKEREFVSAISRQGDKHYYADSVKGRFTISRDNSKNTVYLQMNSLRAEDTATYYCAEWMNTRREFITPYWGQGTQVTVSS
As to B1, the Kd is ~218 nM with V5 peptide [1] and 574 nM with V5 peptide [2].
